Data published in the supplement of paper PMC12042874.
± gives the uncertainty stated by the source.

test: amyloid nucleation score (Sup35N fusion, yeast selection) (log enrichment); library NNK1; higher = more nucleation; inactive = no reads after selection
In short: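 For the nucleation score, DiMSum gave the log enrichment of output over input reads, centred on the mode score of non-aggregating sequences. Psi-negative yeast expressing Sup35N fused to peptides of 20 random codons were induced with 100 μM copper sulfate for 24 hours and grown 7 days at 30°C on medium lacking adenine and uracil. Input and output plasmid inserts were Illumina-sequenced, and sequences with under 100 input reads were excluded.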

Substance	amyloid nucleation score
LNWSNKWSFTNMRRFCAMF	0.01 ± 0.26
LNYFLLLMFQCDGRILFRFY	0.652 ± 0.84
LPALKCELGAAMLSAQLMAR	-0.18 ± 0.24
LPCYSSLQSLGQRMQVKG	0.025 ± 0.31
LPFVDLKFL	0.374 ± 0.28
LPNRCASIVRQIVQVWCVS	2.41 ± 0.12
LPPTLVLMIHNRRVCRCSLA	1.05 ± 0.69
LPSIYSFSSCNVVEDEGQM	-0.685 ± 1.2
LQFLSGYNC	0.293 ± 0.49
LQQITGSCSFSGWGLK	0.091 ± 0.46
LQRGQVLALADSRFCVRCSR	1.02 ± 0.57
LQVVALW	0.123 ± 0.56
LRAVTWLRYAYQGLFDVDV	-0.07 ± 0.56
LRAYSVAFYRLPHVSN	1.35 ± 0.79
LRCLVLYDEVANGRPEDSGG	0.725 ± 1
LRFRMNSLLVKWFFP	-0.199 ± 0.34
LRGRLYASGRVEFYHKQSLF	0.526 ± 0.83
LRHLVIGNKNALLVWFRSHI	0.817 ± 0.52
LRIFSKLFTSSLYNCFEGIP	0.143 ± 0.58
LRKALRLDVHLGTNLYLNSF	0.542 ± 0.75
LRLPSRAFEGFRREAAWGST	1.23 ± 0.76
LRNDLVETSVLGA	1.47 ± 0.54

Substance	amyloid nucleation score
LRNVSFSDFVYWSGFFRGVV	inactive
LRPYFLGCRRSKKPKALLAG	0.252 ± 0.8
LRSLAPCVLGKTGESEPRAF	0.056 ± 0.58
LRTISNVDLLSVS	0.138 ± 0.54
LRTNTWCYGESSRLWGWCGG	0.067 ± 1.2
LRTVPIALIRNMLPVNQESR	0.479 ± 0.53
LRVYPGTYLTNRETRSRSCI	0.828 ± 0.43
LRYFDFCISRLDSEGN	0.264 ± 0.64
LSAMWKSPMHRERRTWGM	0.096 ± 0.42
LSCYLYALVKGLGLRVGHIK	0.177 ± 0.55
LSEYYKAKGDRVTWPQFLTT	-0.453 ± 0.49
LSFIKRMTMNMLTKLD	1.68 ± 0.13
LSGGWEVPQVVAERKARPWI	-0.037 ± 1.7
LSGMDTLGIVRCAVA	-0.325 ± 0.46
LSGSMGA	-0.105 ± 0.44
LSGTNASIWY	-0.212 ± 0.35
LSGVLGSVAFAYIRPRTGFG	-0.143 ± 1.2
LSHVKTTRLMPLET	-1.11 ± 1.7
LSKYP	0.383 ± 0.35
LSLNSHYCDDCVWLFR	1.02 ± 0.45
LSLRCCGFYLIVFFVIKFVS	-0.536 ± 0.29
LSLSYHMLSYI	inactive

Substance	amyloid nucleation score
LSNALS	0.8 ± 0.81
LSNFDRWKTSTVWNSGWFAA	-0.149 ± 1.3
LSRIDRFTVGENMVTATFLI	inactive
LSRILLRKNC	0.224 ± 0.61
LSRLCGSRLLVRVVWRHYRG	-0.21 ± 0.28
LSRSSWQQARICARVHGLGG	1.05 ± 0.58
LSSRHVAGYQEYLNDL	-0.88 ± 0.72
LSSSWLNKKLH	-0.647 ± 0.9
LSTTWDFESMGVRVSREYPG	0.351 ± 0.58
LTCKMDIDKVWVGDMLYS	-0.677 ± 0.62
LTEDMNYFAY	0.252 ± 0.46
LTFLRIYAIDSEPHLSGTML	-0.51 ± 0.71
LTGGVDHC	0.138 ± 0.32
LTGRCPFVGLRLEGHLFLTG	-0.169 ± 0.81
LTKISQLKRCDHKMRKSVSN	0.517 ± 0.26
LTKRVGFDEMSLPHQDASSV	-0.289 ± 0.36
LTMCSGICEVIRQARDHHYR	0.149 ± 0.97
LTSFETFQNFNMAVMYAR	-0.236 ± 0.65
LTSSCQSSLKRKWGNIWHIR	-0.641 ± 1.1
LTYRVFIHYRSRQYVFGTVS	-0.667 ± 0.62
LVAFRYLRSGSSRLKFSVLF	-0.787 ± 0.48
LVESMNLIPATANRHNFTRL	-0.672 ± 1.4

Substance	amyloid nucleation score
LVGGVTNWWCVEVDQKGQNG	inactive
LVGPAVVSYCCIRLISVVD	1.94 ± 0.58
LVGRYSWWQRRRHGTCMGTV	0.629 ± 0.54
LVGVWMDCLMKPKPIARTLP	inactive
LVIALSQTDAYGELVSRNMC	1.06 ± 0.97
LVIFKLTM	3.51 ± 0.066
LVISETWGSCFWNSVDSCAG	0.815 ± 0.66
LVMFSNLCSWFLLF	0.966 ± 0.62
LVRWVCIGFRYILRGELGVE	0.052 ± 0.28
LVSLRSIRSRRWCSRQFWSM	-0.111 ± 0.5
LVSWSTVDVSQLTAWKKPAG	-0.431 ± 0.36
LVTFPKLSEVIHGKADVMHS	-0.633 ± 0.88
LVVCAVVGSDLLWL	0.848 ± 0.72
LVVFATSVGSGGFKVWGHPG	0.041 ± 0.45
LVVIVTPWKYSEP	6.58 ± 0.086
LVVSWKLVPSSSTYCGTMSL	inactive
LVWGFFSHRM	2.37 ± 0.14
LVYGKPVNHAEGSDDSTHNG	0.205 ± 0.6
LWLIVEDSVYFVGMQGHIFN	-0.381 ± 0.39
LWLLHGFDWWKCIYLPGRFL	0.307 ± 0.97
